Experimental data from publication PMC9561264, “Direct hOGG1-Myc interactions inhibit hOGG1 catalytic activity and recruit Myc to its promoters under oxidative stress”.

B1: oxoG 48 bp (EMSA/FP) (dsDNA)
DNA 1: GCATGCCTCGAGTCTAGAGGTACCAGATCTGATCCTCTAGAGTCGACC
DNA 2: GGTCGACTCTAGAGGATCAGATCTGGTACCTCTAGACTCGAGGCATGC
modifications: 8-oxoguanine at position 10 of strand 1 (written G)
B2: undamaged (nsp) 48 bp (dsDNA)
DNA 1: B1 DNA 1
DNA 2: B1 DNA 2

Experiments:
[1] = target: T1, hOGG1 C28A (human, UniProt O15527 1-345, C28A); assay: fluorescence polarisation; oxidising; FP at 25°C with 5 nM labelled DNA; EMSA room temp 30 min, 15% native PAGE 0.5x TBE 4°C; interaction buffer 20 mM Tris-HCl pH 7.6, 200 mM NaCl (Fig. S12); reducing (5 mM DTT in EMSA) or oxidising (pre-oxidised hOGG1); details: protein: recombinant; tags: N-terminal His6 (removed where required); label: 5' AF647 (FP) or Cy3 (EMSA) on bottom strand; blunt
T1 sequence (O15527 whole entry C28A): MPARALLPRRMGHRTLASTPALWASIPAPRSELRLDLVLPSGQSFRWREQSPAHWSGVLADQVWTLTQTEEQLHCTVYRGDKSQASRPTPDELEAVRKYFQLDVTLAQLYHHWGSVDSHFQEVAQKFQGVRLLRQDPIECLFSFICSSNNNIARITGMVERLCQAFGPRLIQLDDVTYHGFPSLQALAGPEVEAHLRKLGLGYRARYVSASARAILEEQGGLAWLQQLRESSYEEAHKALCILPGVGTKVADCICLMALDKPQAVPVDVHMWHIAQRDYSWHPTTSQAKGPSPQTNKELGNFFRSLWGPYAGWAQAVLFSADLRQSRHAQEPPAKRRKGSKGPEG

[2] = target: T2, hOGG1 K249Q (human, UniProt O15527 1-345, K249Q); assay: as above; details: protein: recombinant; tags: N-terminal His6 (removed where required); label: 5' AF647 (FP) or Cy3 (EMSA) on bottom strand; blunt
T2 sequence (O15527 whole entry K249Q): as the sequence (O15527 whole entry C28A) above, with A28C, K249Q counted along it

[3] = target: T1, hOGG1 C28A; assay: fluorescence polarisation; reducing; FP at 25°C with 5 nM labelled DNA; EMSA room temp 30 min, 15% native PAGE 0.5x TBE 4°C; interaction buffer 20 mM Tris-HCl pH 7.6, 200 mM NaCl (Fig. S12); reducing (5 mM DTT in EMSA) or oxidising (pre-oxidised hOGG1); details: protein: recombinant; tags: N-terminal His6 (removed where required); label: 5' AF647 (FP) or Cy3 (EMSA) on bottom strand; blunt
[4] = target: T2, hOGG1 K249Q; assay: as above; details: protein: recombinant; tags: N-terminal His6 (removed where required); label: 5' AF647 (FP) or Cy3 (EMSA) on bottom strand; blunt
[5] = target: hOGG1 C253A (human, UniProt O15527 1-345, C253A); assay: as above; details: protein: recombinant; tags: N-terminal His6 (removed where required); label: 5' AF647 (FP) or Cy3 (EMSA) on bottom strand; blunt
Sequence of hOGG1 C253A (O15527 whole entry C253A): as the sequence (O15527 whole entry C28A) above, with A28C, C253A counted along it

[6] = target: T3, hOGG1 wild type;c-Myc (human;human?, UniProt O15527;P01106 1-345;16-454, |); assay: EMSA; 300 nM each; oxidising and reducing (less stable reducing); FP at 25°C with 5 nM labelled DNA; EMSA room temp 30 min, 15% native PAGE 0.5x TBE 4°C; interaction buffer 20 mM Tris-HCl pH 7.6, 200 mM NaCl (Fig. S12); reducing (5 mM DTT in EMSA) or oxidising (pre-oxidised hOGG1); details: protein: recombinant;commercial; tags: N-terminal His6 (removed by protease where required);GST; quantum dot in E-box AFM; label: 5' AF647 (FP) or Cy3 (EMSA) on bottom strand; blunt
T3 sequence (O15527 whole entry, chain 1 of 2): as the sequence (O15527 whole entry C28A) above, with A28C counted along it
T3 sequence (P01106 16-454, chain 2 of 2): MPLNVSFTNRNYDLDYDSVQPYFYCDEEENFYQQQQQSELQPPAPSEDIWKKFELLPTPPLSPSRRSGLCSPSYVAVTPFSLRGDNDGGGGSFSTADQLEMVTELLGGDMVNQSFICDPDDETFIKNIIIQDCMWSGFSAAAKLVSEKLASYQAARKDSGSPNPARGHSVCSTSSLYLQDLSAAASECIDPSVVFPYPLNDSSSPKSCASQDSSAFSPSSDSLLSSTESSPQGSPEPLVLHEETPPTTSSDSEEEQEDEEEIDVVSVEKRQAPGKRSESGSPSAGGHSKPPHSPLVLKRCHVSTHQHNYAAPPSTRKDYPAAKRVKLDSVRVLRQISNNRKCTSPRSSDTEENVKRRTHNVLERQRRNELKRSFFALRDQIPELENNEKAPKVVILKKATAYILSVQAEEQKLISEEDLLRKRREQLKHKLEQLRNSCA

[7] = target: T3, hOGG1 wild type;c-Myc; assay: EMSA; less stable under reducing conditions; FP at 25°C with 5 nM labelled DNA; EMSA room temp 30 min, 15% native PAGE 0.5x TBE 4°C; interaction buffer 20 mM Tris-HCl pH 7.6, 200 mM NaCl (Fig. S12); reducing (5 mM DTT in EMSA) or oxidising (pre-oxidised hOGG1); details: protein: recombinant;commercial; tags: N-terminal His6 (removed by protease where required);GST; quantum dot in E-box AFM; label: 5' AF647 (FP) or Cy3 (EMSA) on bottom strand; blunt

Row | Binder | Kd [1] [nM] | Kd [2] [nM] | Kd [3] [nM] | Kd [4] [nM] | Kd [5] [nM] | binding result [6] | binding result [7]
1 | B1 | 61 ± 11 | 95 ± 5 | 65 ± 8 | 42 ± 3 | 99 ± 24 | binds | –
2 | B2 | – | – | – | – | – | – | binds
